Source: publication PMC4437517 (Proteins, 2008)

Key:
crystal structure = molecular target: the molecule itself; assay: crystal structure
SEC = molecular target: the molecule itself; assay: SEC

B1: protein product of the Arabidopsis thaliana gene locus At1g05000 (enzyme, UniProt Q9ZVN4 1-215, looked up)
chain: SKLVEKTTTTEQDNGEDFCRTIIEVSEVNRNVFQAPGGEADPFRVVSGEELHLIPPLNFSMVDNGIFRSGFPDSANFSFLQTLGLRSIIYLCPEPYPESNLQFLKSNGIRLFQFGIEGNKEPFVNIPDHKIRMALKVLLDEKNHPVLIHCKRGKHRTGCLVGCLRKLQKWCLTSIFDEYQRFAAAKARVSDQRFMEIFDVSSFSHIPMSFSCSIR
modifications: selenomethionine-labeled
- stoichiometry N (crystal structure): 6
- stoichiometry N (SEC): 2
